From the Human Domainome abundance scans (Beltran et al. 2025)

B1: Far upstream element-binding protein 1, residues 184 to 257; numbered along this chain, Q96AE4 (parent)
chain: GNAVQEIMIPASKAGLVIGKGGETIKQLQERAGVKMVMIQDGPQNTGADKPLRITGDPYKVQQAKEMVLELIRD

Variants of: B1
Assay: abundance fitness (aPCA) (normalised: wild type 0, dead -1); higher = more abundant; growth selection in yeast, the domain comes from the species named
Conditions: Homo sapiens

Abundance fitness: each site, then its substitutions
K50: A -0.027; C -0.057; G -0.201; T -0.019; M -0.035; P -0.202; L 0.019; Y 0.018; V -0.005; W -0.058; S -0.068; H -0.04; E -0.202; D -0.525; R -0.005; N -0.071
T55: K -0.165; I -0.023; D -0.111; C -0.065; M -0.008; L -0.05; W -0.115; Q -0.022; Y -0.132; N -0.138; P -0.963; F -0.062; S -0.053; R -0.152; E -0.086; V -0.047; H -0.096
I39: M 0.014; G -0.028; C -0.051; E -0.001; H -0.095; D -0.105; V 0.006; P -0.061; K 0; R 0.006; Q -0.032; T -0.088; S -0.02; Y -0.08; W -0.096; N 0.014; F 0.035; L -0.008
V37: K 0.039; W -0.059; S -0.048; A -0.054; N -0.065; G -0.172; Q -0.025; H -0.178; E -0.006; T -0.026; P -0.773; I -0.049; C 0.009; R -0.019; M -0.07
N45: A -0.019; S -0.057; M -0.055; W -0.105; P -0.055; F 0.023; Y -0.091; H -0.022; E -0.024; R -0.022; K -0.008; I -0.029; D 0.013; V -0.057; G -0.008; L -0.128
D49: C -0.057; F -0.081; N -0.034; L -0.052; Y -0.015; W -0.114; H -0.012; Q -0.096; A -0.029; R -0.129; T -0.045; I -0.148; P -0.01; V -0.068; S -0.077; G -0.084; K -0.087
Q44: M -0.007; K 0.038; A -0.008; L -0.055; C -0.083; S -0.04; H 0.042; V -0.067; P 0.006; D 0.004; F -0.082; I -0.046; R -0.048; E -0.06; W -0.088; G 0.007; Y -0.002; N 0.02
Q40: V -0.052; P -0.052; S -0.042; T -0.059; Y -0.049; C -0.024; E -0.067; W -0.086; H -0.146; L -0.076; F -0.027; M -0.085; D -0.008; R -0.053; I -0.147; K -0.025
I54: Y -1.19; G -0.913; N -1.22; S -0.522; C -0.504; K -0.878; L -0.069; F -0.175; P -1.08; M -0.074; A -0.807; E -0.883; T -0.723; V -0.148; R -1.06; D -0.829; W -1.06; Q -0.902; H -1.03
A48: S -0.035; G 0.002; W -0.124; P -0.042; F -0.01; E 0.021; R -0.018; I 0.005; V -0.015; T 0.013; C 0.053; N -0.086; K 0.003; D 0.077; M 0.02
